Reference: patent US20140087995A1 (published 2014)
Read-outs that look alike come from different tables or passages of the source. Numbered stars: 1 amine (or outer) side, 2 acyl side, 3 side chain; on linkers, the order of the positions; unused ones are H or OH. Bridge positions count the residues as written; N and C are the ends. Side chains are listed from the residue outwards. Ends that are not written are not given here. * marks the point of attachment. C20 diacid = O=C(O)CCCCCCCCCCCCCCCCCCC(=O)*; γGlu = O=C(O)[C@H](CCC(=O)[*:2])N[*:1]; AEEA = NCCOCCOCC(=O)O

T1: human amylin receptor (amylin 3(a) receptor: human calcitonin receptor plus RAMP-3) (human, UniProt P30988 25-474; O60896 24-148)
T1 construct: whole, on cells; functional assay used the whole cells; also called hAmylin-R; hAmylinR
T1 sequence (looked up) 1: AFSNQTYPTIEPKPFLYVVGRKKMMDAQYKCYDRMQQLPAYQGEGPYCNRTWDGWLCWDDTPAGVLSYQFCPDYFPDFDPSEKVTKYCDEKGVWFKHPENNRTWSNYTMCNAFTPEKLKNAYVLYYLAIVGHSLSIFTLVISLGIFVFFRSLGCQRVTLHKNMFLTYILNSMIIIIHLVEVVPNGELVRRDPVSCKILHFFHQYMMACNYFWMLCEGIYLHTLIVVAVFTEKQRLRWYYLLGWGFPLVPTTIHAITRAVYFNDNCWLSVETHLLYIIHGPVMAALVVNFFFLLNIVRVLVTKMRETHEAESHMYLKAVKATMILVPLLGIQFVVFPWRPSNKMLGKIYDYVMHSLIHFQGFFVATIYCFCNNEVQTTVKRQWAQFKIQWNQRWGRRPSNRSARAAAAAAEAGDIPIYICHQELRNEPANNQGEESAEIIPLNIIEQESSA
T1 sequence (looked up) 2: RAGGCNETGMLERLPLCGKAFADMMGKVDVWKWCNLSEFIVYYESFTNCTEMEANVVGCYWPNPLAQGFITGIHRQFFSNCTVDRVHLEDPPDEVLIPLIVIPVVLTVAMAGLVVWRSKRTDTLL

T2: human calcitonin receptor (human, UniProt P30988 25-474)
T2 sequence (looked up): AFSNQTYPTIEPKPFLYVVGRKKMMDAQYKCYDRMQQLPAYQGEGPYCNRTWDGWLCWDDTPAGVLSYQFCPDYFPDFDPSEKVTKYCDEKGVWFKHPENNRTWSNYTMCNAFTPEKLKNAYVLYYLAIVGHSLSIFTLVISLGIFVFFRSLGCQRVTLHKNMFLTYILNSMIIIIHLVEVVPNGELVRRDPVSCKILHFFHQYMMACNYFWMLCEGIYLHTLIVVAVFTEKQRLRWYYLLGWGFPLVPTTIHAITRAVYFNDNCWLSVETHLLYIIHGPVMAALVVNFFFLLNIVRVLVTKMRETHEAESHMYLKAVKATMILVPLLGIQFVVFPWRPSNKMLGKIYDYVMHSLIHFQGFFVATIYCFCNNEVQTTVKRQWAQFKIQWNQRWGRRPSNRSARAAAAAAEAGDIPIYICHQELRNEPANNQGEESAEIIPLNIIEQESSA


Legend:
[1] = molecular target: T1, human amylin receptor (amylin 3(a) …); experiment: SPA competition, displacement of 125I-rat amylin from membranes of BHK cells with human calcitonin receptor + RAMP-3 (Assay V)
Description: (§1) The binding assay was performed using scintillation proximity assay (SPA) beads (RPNQ0001) from PerkinElmer and cell membranes from the Amylin 3(a)/CRE-luc cells (as described in Assay (II)) were used. Membranes were prepared in the following way; the cells were rinsed with PBS and incubated with Versene for approximately 5 min before harvesting. The cells were flushed with PBS and the cell-suspension was centrifuged for 5 min at 1000 rpm. Cells were homogenized (ultrathurrax) in a buffer containing 20 mM Na-HEPES and 10 mM EDTA (pH 7.4) and centrifuged at 20.000 rpm for 15 min. The resulting pellet was resuspended, homogenized and centrifuged (20.000 rpm, 15 min) in a buffer containing 20 mM Na-HEPES and 0.1 mM EDTA (pH 7.4, buffer 2). The resulting pellet was resuspended in buffer 2 and protein concentration was measured (BCA protein Assay, Pierce). The homogenate was kept cold during the whole procedure. The membranes were kept at −80° C. until use. The assay was performed in a 384 well Optiplate (PerkinElmer) in a total volume of 40 ul. Membranes were mixed with SPA beads. Final concentration of membranes 35 ng/μL final and SPA beads was 0.05 mg/well. Test-compounds were dissolved in DMSO and further diluted in assay buffer (50 mM Hepes, pH 7.4, 1 mM CaCl2, 5 mM MgCl₂, 0.1% OA and 0.02% Tween20). […] The final mixture was incubated with shaking at 400 rpm for 120 min at 25° C. prior to centrifugation (1500 rpm, 10 min). Samples were analyzed on TopCounter™ (Packard). The IC₅₀ was calculated using (one site binding competition analysis) GraphPad Prism5 as a measure of receptor affinity.

[2] = molecular target: T2, human calcitonin receptor; experiment: cell-based or functional assay
[3] = molecular target: T1, human amylin receptor (amylin 3(a) …); experiment: cell-based or functional assay
[4] = molecular target: T2, human calcitonin receptor; experiment: cell-based or functional assay; remark: listed apart in the source
[5] = molecular target: T1, human amylin receptor (amylin 3(a) …); experiment: cell-based or functional assay; remark: listed apart in the source
[6] = molecular target: T1, human amylin receptor (amylin 3(a) …); experiment: SPA competition, displacement of 125I-rat amylin from membranes of BHK cells with human calcitonin receptor + RAMP-3 (Assay V); remark: listed apart in the source
Description: as §1

Row | IC50 [1] | hCTR funct. EC50 (pM) [2] | Ratio hCT/hAmylin funct. [3] | hAmylin-R funct. EC50 (pM) [3] | hCTR funct. EC50 (pM) [4] | Ratio hCT/hAmylin funct. [5] | hAmylin-R funct. EC50 (pM) [5] | IC50 [6] | Binder
1 | 0.115 nM | 3120 pM | 35 | 89 pM | 3120 pM | 35 | 89 pM | 0.115 nM | K([AEEA-γGlu-C20 diacid])CNTATCATQRLANFLRHSSPNFGAIPSSTPVGSHTY-NH2 (disulfide 2-7; N-terminus assumed; SMILES CC[C@H](C)[C@H](NC(=O)[C@H](C)NC(=O)CNC(=O)[C@H](Cc1ccccc1)NC(=O)[C@H](CC(N)=O)NC(=O)[C@@H]1CCCN1C(=O)[C@H](CO)NC(=O)[C@H](CO)NC(=O)[C@H](Cc1c[nH]cn1)NC(=O)[C@H](CCCNC(=N)N)NC(=O)[C@H](CC(C)C)NC(=O)[C@H](Cc1ccccc1)NC(=O)[C@H](CC(N)=O)NC(=O)[C@H](C)NC(=O)[C@H](CC(C)C)NC(=O)[C@H](CCCNC(=N)N)NC(=O)[C@H](CCC(N)=O)NC(=O)[C@@H](NC(=O)[C@H](C)NC(=O)[C@@H]1CSSC[C@H](NC(=O)[C@@H](N)CCCCNC(=O)COCCOCCNC(=O)CC[C@H](NC(=O)CCCCCCCCCCCCCCCCCCC(=O)O)C(=O)O)C(=O)N[C@@H](CC(N)=O)C(=O)N[C@@H]([C@@H](C)O)C(=O)N[C@@H](C)C(=O)N[C@@H]([C@@H](C)O)C(=O)N1)[C@@H](C)O)C(=O)N1CCC[C@H]1C(=O)N[C@@H](CO)C(=O)N[C@@H](CO)C(=O)N[C@H](C(=O)N1CCC[C@H]1C(=O)N[C@H](C(=O)NCC(=O)N[C@@H](CO)C(=O)N[C@@H](Cc1c[nH]cn1)C(=O)N[C@H](C(=O)N[C@@H](Cc1ccc(O)cc1)C(N)=O)[C@@H](C)O)C(C)C)[C@@H](C)O, also called compound 57)
2 | 0.179 nM | 1450 pM | – | 101 pM | 1450 pM | – | 101 pM | 0.179 nM | K([γGlu-C20 diacid])CNTATCATQRLAEFLRHSSPNFGAIPSSTNVGPHTY-NH2 (disulfide 2-7)
3 | 0.088 nM | 1030 pM | 21.9 | 47 pM | 1030 pM | 21.9 | 47 pM | 0.088 nM | K([AEEA-γGlu-C20 diacid])CNTATCATQRLANFLRHSSPNFGAIPSSTNVGPHTY-NH2 (disulfide 2-7; N-terminus assumed; SMILES CC[C@H](C)[C@H](NC(=O)[C@H](C)NC(=O)CNC(=O)[C@H](Cc1ccccc1)NC(=O)[C@H](CC(N)=O)NC(=O)[C@@H]1CCCN1C(=O)[C@H](CO)NC(=O)[C@H](CO)NC(=O)[C@H](Cc1c[nH]cn1)NC(=O)[C@H](CCCNC(=N)N)NC(=O)[C@H](CC(C)C)NC(=O)[C@H](Cc1ccccc1)NC(=O)[C@H](CC(N)=O)NC(=O)[C@H](C)NC(=O)[C@H](CC(C)C)NC(=O)[C@H](CCCNC(=N)N)NC(=O)[C@H](CCC(N)=O)NC(=O)[C@@H](NC(=O)[C@H](C)NC(=O)[C@@H]1CSSC[C@H](NC(=O)[C@@H](N)CCCCNC(=O)COCCOCCNC(=O)CC[C@H](NC(=O)CCCCCCCCCCCCCCCCCCC(=O)O)C(=O)O)C(=O)N[C@@H](CC(N)=O)C(=O)N[C@@H]([C@@H](C)O)C(=O)N[C@@H](C)C(=O)N[C@@H]([C@@H](C)O)C(=O)N1)[C@@H](C)O)C(=O)N1CCC[C@H]1C(=O)N[C@@H](CO)C(=O)N[C@@H](CO)C(=O)N[C@H](C(=O)N[C@@H](CC(N)=O)C(=O)N[C@H](C(=O)NCC(=O)N1CCC[C@H]1C(=O)N[C@@H](Cc1c[nH]cn1)C(=O)N[C@H](C(=O)N[C@@H](Cc1ccc(O)cc1)C(N)=O)[C@@H](C)O)C(C)C)[C@@H](C)O, also called compound 58)
4 | 0.695 nM | 5360 pM | 15.3 | 351 pM | 5360 pM | 15.3 | 351 pM | 0.695 nM | K([γGlu-C20 diacid])CNTATCATQRLANFLRHSSPNFGAIPSSTNVGSHTY-NH2 (disulfide 2-7; N-terminus assumed; SMILES CC[C@H](C)[C@H](NC(=O)[C@H](C)NC(=O)CNC(=O)[C@H](Cc1ccccc1)NC(=O)[C@H](CC(N)=O)NC(=O)[C@@H]1CCCN1C(=O)[C@H](CO)NC(=O)[C@H](CO)NC(=O)[C@H](Cc1c[nH]cn1)NC(=O)[C@H](CCCNC(=N)N)NC(=O)[C@H](CC(C)C)NC(=O)[C@H](Cc1ccccc1)NC(=O)[C@H](CC(N)=O)NC(=O)[C@H](C)NC(=O)[C@H](CC(C)C)NC(=O)[C@H](CCCNC(=N)N)NC(=O)[C@H](CCC(N)=O)NC(=O)[C@@H](NC(=O)[C@H](C)NC(=O)[C@@H]1CSSC[C@H](NC(=O)[C@@H](N)CCCCNC(=O)CC[C@H](NC(=O)CCCCCCCCCCCCCCCCCCC(=O)O)C(=O)O)C(=O)N[C@@H](CC(N)=O)C(=O)N[C@@H]([C@@H](C)O)C(=O)N[C@@H](C)C(=O)N[C@@H]([C@@H](C)O)C(=O)N1)[C@@H](C)O)C(=O)N1CCC[C@H]1C(=O)N[C@@H](CO)C(=O)N[C@@H](CO)C(=O)N[C@H](C(=O)N[C@@H](CC(N)=O)C(=O)N[C@H](C(=O)NCC(=O)N[C@@H](CO)C(=O)N[C@@H](Cc1c[nH]cn1)C(=O)N[C@H](C(=O)N[C@@H](Cc1ccc(O)cc1)C(N)=O)[C@@H](C)O)C(C)C)[C@@H](C)O, also called compound 60) [N^ε1-[(4S)-4-carboxy-4-(19-carboxynonadecanoylamino)butanoyl]-[Arg17,Pro21,Pro27,His35]-h-amylin]
5 | 0.377 nM | 2830 pM | – | 172 pM | 2830 pM | – | 172 pM | 0.377 nM | K([γGlu-γGlu-C20 diacid])CNTATCATQRLAEFLRHSSPNFGAIPSSTNVGPHTY-NH2 (disulfide 2-7 (inferred))
6 | 0.396 nM | 542 pM | 20.1 | 27 pM | 542 pM | 20.1 | 27 pM | 0.396 nM | K([γGlu-C20 diacid])CNTATCATQRLAHFLRHSSPNFGAIPSSTNVGSHTY-NH2 (disulfide 2-7; N-terminus assumed; SMILES CC[C@H](C)[C@H](NC(=O)[C@H](C)NC(=O)CNC(=O)[C@H](Cc1ccccc1)NC(=O)[C@H](CC(N)=O)NC(=O)[C@@H]1CCCN1C(=O)[C@H](CO)NC(=O)[C@H](CO)NC(=O)[C@H](Cc1c[nH]cn1)NC(=O)[C@H](CCCNC(=N)N)NC(=O)[C@H](CC(C)C)NC(=O)[C@H](Cc1ccccc1)NC(=O)[C@H](Cc1c[nH]cn1)NC(=O)[C@H](C)NC(=O)[C@H](CC(C)C)NC(=O)[C@H](CCCNC(=N)N)NC(=O)[C@H](CCC(N)=O)NC(=O)[C@@H](NC(=O)[C@H](C)NC(=O)[C@@H]1CSSC[C@H](NC(=O)[C@@H](N)CCCCNC(=O)CC[C@H](NC(=O)CCCCCCCCCCCCCCCCCCC(=O)O)C(=O)O)C(=O)N[C@@H](CC(N)=O)C(=O)N[C@@H]([C@@H](C)O)C(=O)N[C@@H](C)C(=O)N[C@@H]([C@@H](C)O)C(=O)N1)[C@@H](C)O)C(=O)N1CCC[C@H]1C(=O)N[C@@H](CO)C(=O)N[C@@H](CO)C(=O)N[C@H](C(=O)N[C@@H](CC(N)=O)C(=O)N[C@H](C(=O)NCC(=O)N[C@@H](CO)C(=O)N[C@@H](Cc1c[nH]cn1)C(=O)N[C@H](C(=O)N[C@@H](Cc1ccc(O)cc1)C(N)=O)[C@@H](C)O)C(C)C)[C@@H](C)O, also called compound 66)
